# Measurements from paper PMC2782468 (Nature structural & molecular biology, 2009).
# T1: wild-type CBP80 expressed alone in insect cells (human, UniProt Q09161 1-790)
# T1 sequence: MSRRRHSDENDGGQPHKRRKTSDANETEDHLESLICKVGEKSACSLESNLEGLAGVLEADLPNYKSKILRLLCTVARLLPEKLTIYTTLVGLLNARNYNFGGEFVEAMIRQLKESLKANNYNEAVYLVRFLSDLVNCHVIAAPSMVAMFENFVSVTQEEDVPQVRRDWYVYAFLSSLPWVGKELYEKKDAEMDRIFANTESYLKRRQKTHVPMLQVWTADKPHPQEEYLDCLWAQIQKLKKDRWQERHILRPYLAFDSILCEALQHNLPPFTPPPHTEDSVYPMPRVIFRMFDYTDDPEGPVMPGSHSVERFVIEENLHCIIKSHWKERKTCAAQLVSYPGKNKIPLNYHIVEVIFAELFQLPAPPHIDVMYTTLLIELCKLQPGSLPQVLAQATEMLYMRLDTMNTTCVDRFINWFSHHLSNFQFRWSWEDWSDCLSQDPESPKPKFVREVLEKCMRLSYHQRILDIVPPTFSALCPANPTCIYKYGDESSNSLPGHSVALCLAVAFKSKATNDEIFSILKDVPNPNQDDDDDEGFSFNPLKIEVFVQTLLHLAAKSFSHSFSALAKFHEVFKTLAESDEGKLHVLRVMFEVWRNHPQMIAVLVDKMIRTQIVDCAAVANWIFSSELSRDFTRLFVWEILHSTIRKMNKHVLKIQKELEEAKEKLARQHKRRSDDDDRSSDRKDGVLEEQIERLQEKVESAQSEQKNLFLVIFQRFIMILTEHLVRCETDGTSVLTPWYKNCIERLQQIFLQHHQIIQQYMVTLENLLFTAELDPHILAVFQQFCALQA
# What was measured:
# [1] = biological target: T2, full-length human importin-β1 (human, UniProt Q14974 1-876); experiment: pull-down
# [2] = biological target: T1, wild-type CBP80 expressed alone in …; experiment: pull-down
# [3] = biological target: T2, full-length human importin-β1; experiment: native gel or EMSA
# [4] = biological target: T3, full-length human importin-α isoform 1 (karyopherin-α2) (human, UniProt P52292 1-529); experiment: pull-down
# [5] = biological target: T3, full-length human importin-α isoform 1 …; experiment: SEC
# T2 sequence (Q14974 whole entry): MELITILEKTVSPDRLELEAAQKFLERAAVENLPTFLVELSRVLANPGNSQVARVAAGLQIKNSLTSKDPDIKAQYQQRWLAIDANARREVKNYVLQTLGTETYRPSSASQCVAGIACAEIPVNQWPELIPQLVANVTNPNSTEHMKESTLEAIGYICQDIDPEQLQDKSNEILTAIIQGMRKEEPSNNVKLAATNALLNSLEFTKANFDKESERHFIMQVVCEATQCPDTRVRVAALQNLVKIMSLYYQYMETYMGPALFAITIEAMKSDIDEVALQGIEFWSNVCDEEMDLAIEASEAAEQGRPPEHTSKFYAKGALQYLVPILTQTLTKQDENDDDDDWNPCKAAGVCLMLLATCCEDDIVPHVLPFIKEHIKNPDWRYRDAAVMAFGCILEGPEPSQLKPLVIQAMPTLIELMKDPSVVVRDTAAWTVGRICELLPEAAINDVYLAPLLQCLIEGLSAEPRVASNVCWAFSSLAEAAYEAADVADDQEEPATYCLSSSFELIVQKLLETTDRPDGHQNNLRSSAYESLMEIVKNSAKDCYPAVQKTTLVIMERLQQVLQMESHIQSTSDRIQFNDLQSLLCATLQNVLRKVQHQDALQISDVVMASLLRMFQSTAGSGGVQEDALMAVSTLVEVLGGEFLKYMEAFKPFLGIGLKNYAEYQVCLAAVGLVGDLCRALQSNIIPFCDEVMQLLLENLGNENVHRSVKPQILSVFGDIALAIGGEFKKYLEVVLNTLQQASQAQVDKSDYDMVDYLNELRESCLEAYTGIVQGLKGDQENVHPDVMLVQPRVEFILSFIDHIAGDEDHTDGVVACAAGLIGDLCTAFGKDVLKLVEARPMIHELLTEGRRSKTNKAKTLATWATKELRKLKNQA
binding result [2],binding result [3],Binder,further results
binds,–,His-tagged full-length CBP20 (natural protein) MSGGLLKALRSDSYVELSQYRDQHFRGDNEEQEKLLKKSCTLYVGNLSFYTTEEQIYELFSKSGDIKKIIMGLDKMKKTACGFCFVEYYSRADAENAMRYINGTRLDDRIIRTDWDAGFKEGRQYGRGRSGGQVRDEYRQDYDAGRGGYGKLAQNQ,binding result [1]: binds
–,binds,full-length CBP20 (natural protein) MSGGLLKALRSDSYVELSQYRDQHFRGDNEEQEKLLKKSCTLYVGNLSFYTTEEQIYELFSKSGDIKKIIMGLDKMKKTACGFCFVEYYSRADAENAMRYINGTRLDDRIIRTDWDAGFKEGRQYGRGRSGGQVRDEYRQDYDAGRGGYGKLAQNQ,–
–,–,apo-CBC reconstituted from His-tagged CBP20 and CBP80 (complex) chain 1: MSGGLLKALRSDSYVELSQYRDQHFRGDNEEQEKLLKKSCTLYVGNLSFYTTEEQIYELFSKSGDIKKIIMGLDKMKKTACGFCFVEYYSRADAENAMRYINGTRLDDRIIRTDWDAGFKEGRQYGRGRSGGQVRDEYRQDYDAGRGGYGKLAQNQ chain 2: MSRRRHSDENDGGQPHKRRKTSDANETEDHLESLICKVGEKSACSLESNLEGLAGVLEADLPNYKSKILRLLCTVARLLPEKLTIYTTLVGLLNARNYNFGGEFVEAMIRQLKESLKANNYNEAVYLVRFLSDLVNCHVIAAPSMVAMFENFVSVTQEEDVPQVRRDWYVYAFLSSLPWVGKELYEKKDAEMDRIFANTESYLKRRQKTHVPMLQVWTADKPHPQEEYLDCLWAQIQKLKKDRWQERHILRPYLAFDSILCEALQHNLPPFTPPPHTEDSVYPMPRVIFRMFDYTDDPEGPVMPGSHSVERFVIEENLHCIIKSHWKERKTCAAQLVSYPGKNKIPLNYHIVEVIFAELFQLPAPPHIDVMYTTLLIELCKLQPGSLPQVLAQATEMLYMRLDTMNTTCVDRFINWFSHHLSNFQFRWSWEDWSDCLSQDPESPKPKFVREVLEKCMRLSYHQRILDIVPPTFSALCPANPTCIYKYGDESSNSLPGHSVALCLAVAFKSKATNDEIFSILKDVPNPNQDDDDDEGFSFNPLKIEVFVQTLLHLAAKSFSHSFSALAKFHEVFKTLAESDEGKLHVLRVMFEVWRNHPQMIAVLVDKMIRTQIVDCAAVANWIFSSELSRDFTRLFVWEILHSTIRKMNKHVLKIQKELEEAKEKLARQHKRRSDDDDRSSDRKDGVLEEQIERLQEKVESAQSEQKNLFLVIFQRFIMILTEHLVRCETDGTSVLTPWYKNCIERLQQIFLQHHQIIQQYMVTLENLLFTAELDPHILAVFQQFCALQA,binding result [4]: binds
–,–,"human nuclear cap-binding complex (CBC), CBP20 and CBP80 co-expressed (complex) chain 1: MSRRRHSDENDGGQPHKRRKTSDANETEDHLESLICKVGEKSACSLESNLEGLAGVLEADLPNYKSKILRLLCTVARLLPEKLTIYTTLVGLLNARNYNFGGEFVEAMIRQLKESLKANNYNEAVYLVRFLSDLVNCHVIAAPSMVAMFENFVSVTQEEDVPQVRRDWYVYAFLSSLPWVGKELYEKKDAEMDRIFANTESYLKRRQKTHVPMLQVWTADKPHPQEEYLDCLWAQIQKLKKDRWQERHILRPYLAFDSILCEALQHNLPPFTPPPHTEDSVYPMPRVIFRMFDYTDDPEGPVMPGSHSVERFVIEENLHCIIKSHWKERKTCAAQLVSYPGKNKIPLNYHIVEVIFAELFQLPAPPHIDVMYTTLLIELCKLQPGSLPQVLAQATEMLYMRLDTMNTTCVDRFINWFSHHLSNFQFRWSWEDWSDCLSQDPESPKPKFVREVLEKCMRLSYHQRILDIVPPTFSALCPANPTCIYKYGDESSNSLPGHSVALCLAVAFKSKATNDEIFSILKDVPNPNQDDDDDEGFSFNPLKIEVFVQTLLHLAAKSFSHSFSALAKFHEVFKTLAESDEGKLHVLRVMFEVWRNHPQMIAVLVDKMIRTQIVDCAAVANWIFSSELSRDFTRLFVWEILHSTIRKMNKHVLKIQKELEEAKEKLARQHKRRSDDDDRSSDRKDGVLEEQIERLQEKVESAQSEQKNLFLVIFQRFIMILTEHLVRCETDGTSVLTPWYKNCIERLQQIFLQHHQIIQQYMVTLENLLFTAELDPHILAVFQQFCALQA chain 2: MSGGLLKALRSDSYVELSQYRDQHFRGDNEEQEKLLKKSCTLYVGNLSFYTTEEQIYELFSKSGDIKKIIMGLDKMKKTACGFCFVEYYSRADAENAMRYINGTRLDDRIIRTDWDAGFKEGRQYGRGRSGGQVRDEYRQDYDAGRGGYGKLAQNQ",binding result [5]: binds
binds,–,His-tagged CBP20 Δ1–14 (domain or fragment) VELSQYRDQHFRGDNEEQEKLLKKSCTLYVGNLSFYTTEEQIYELFSKSGDIKKIIMGLDKMKKTACGFCFVEYYSRADAENAMRYINGTRLDDRIIRTDWDAGFKEGRQYGRGRSGGQVRDEYRQDYDAGRGGYGKLAQNQ,–
–,binds,CBP20 Δ1–14 (domain or fragment) VELSQYRDQHFRGDNEEQEKLLKKSCTLYVGNLSFYTTEEQIYELFSKSGDIKKIIMGLDKMKKTACGFCFVEYYSRADAENAMRYINGTRLDDRIIRTDWDAGFKEGRQYGRGRSGGQVRDEYRQDYDAGRGGYGKLAQNQ,–
–,binds,CBP20 Δ126–156 (domain or fragment) MSGGLLKALRSDSYVELSQYRDQHFRGDNEEQEKLLKKSCTLYVGNLSFYTTEEQIYELFSKSGDIKKIIMGLDKMKKTACGFCFVEYYSRADAENAMRYINGTRLDDRIIRTDWDAGFKEGRQY,–
binds,–,His-tagged CBP20 Δ126–156 (domain or fragment) MSGGLLKALRSDSYVELSQYRDQHFRGDNEEQEKLLKKSCTLYVGNLSFYTTEEQIYELFSKSGDIKKIIMGLDKMKKTACGFCFVEYYSRADAENAMRYINGTRLDDRIIRTDWDAGFKEGRQY,–
binds,–,His-tagged CBP20 Δ1–14Δ126–156 (domain or fragment) VELSQYRDQHFRGDNEEQEKLLKKSCTLYVGNLSFYTTEEQIYELFSKSGDIKKIIMGLDKMKKTACGFCFVEYYSRADAENAMRYINGTRLDDRIIRTDWDAGFKEGRQY,–
